Data taken from patent US20110172153A1 (GENERAL HOSPITAL, published 2011).
Square brackets hold non-standard residues; d marks the D form. Ends that are not written are not given here. hArg = N=C(N)NCCCC[C@H](N)C(=O)O; Nle = CCCC[C@H](N)C(=O)O; Aib = CC(C)(N)C(=O)O

Key:
PTHR-CFPIC3/YFPCT = PTHR-CFPIC3/YFPCT (human); experiment: cell-based or functional assay
[1] = biological target: T1, rat parathyroid hormone receptor (PTHR) (rat, UniProt P25961 27-591); experiment: near-equilibrium radioligand binding, ROS17/2.8 membranes
T1 construct: Endogenous in ROS17/2.8 cells (membranes or intact cells); also called rat PTHR; rat PIR
T1 sequence: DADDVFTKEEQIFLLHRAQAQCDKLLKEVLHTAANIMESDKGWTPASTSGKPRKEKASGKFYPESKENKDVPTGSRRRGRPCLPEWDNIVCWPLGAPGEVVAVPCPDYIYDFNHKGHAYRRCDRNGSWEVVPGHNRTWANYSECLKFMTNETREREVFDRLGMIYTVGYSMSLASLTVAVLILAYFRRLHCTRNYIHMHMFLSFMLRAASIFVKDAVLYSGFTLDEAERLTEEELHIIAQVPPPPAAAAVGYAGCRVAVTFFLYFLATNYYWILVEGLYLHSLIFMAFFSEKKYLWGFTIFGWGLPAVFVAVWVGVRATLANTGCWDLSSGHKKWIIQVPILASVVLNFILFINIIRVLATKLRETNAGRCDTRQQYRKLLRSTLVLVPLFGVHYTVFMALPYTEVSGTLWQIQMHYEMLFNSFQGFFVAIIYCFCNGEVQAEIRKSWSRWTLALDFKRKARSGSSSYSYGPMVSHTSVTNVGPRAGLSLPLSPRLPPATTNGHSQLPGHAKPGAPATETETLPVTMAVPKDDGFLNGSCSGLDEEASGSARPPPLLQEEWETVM

[2] = biological target: T2, human parathyroid hormone receptor (PTHR) (human, UniProt Q03431 27-593); experiment: cell-based or functional assay
T2 sequence: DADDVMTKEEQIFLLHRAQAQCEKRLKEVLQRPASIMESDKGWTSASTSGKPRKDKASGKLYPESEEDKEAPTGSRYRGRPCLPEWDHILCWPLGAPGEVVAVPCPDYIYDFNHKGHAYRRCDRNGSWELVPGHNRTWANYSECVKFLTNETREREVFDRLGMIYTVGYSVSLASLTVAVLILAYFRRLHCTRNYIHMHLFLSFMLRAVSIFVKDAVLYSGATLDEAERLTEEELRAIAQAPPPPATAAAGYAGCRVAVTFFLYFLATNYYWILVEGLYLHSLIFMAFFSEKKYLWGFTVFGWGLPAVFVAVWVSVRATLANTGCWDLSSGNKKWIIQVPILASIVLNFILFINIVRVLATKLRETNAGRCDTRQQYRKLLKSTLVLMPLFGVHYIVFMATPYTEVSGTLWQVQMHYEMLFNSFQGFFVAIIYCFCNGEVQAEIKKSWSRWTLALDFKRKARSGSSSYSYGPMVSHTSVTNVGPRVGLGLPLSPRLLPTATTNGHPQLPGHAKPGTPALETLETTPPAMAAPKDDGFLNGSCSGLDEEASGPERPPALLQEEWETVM

[3] = biological target: T2, human parathyroid hormone receptor …; experiment: competition radioligand binding, human PIR RG
Description: (§1) Binding Studies. Binding studies were performed using cell membranes as described (Dean et al., Mol Endocrinol 20(4):931-43 (2006)). […] Reactions contained a total membrane protein concentration of 20 to 100 μg/mL, and a total radioactivity concentration of approximately 150,000 cpm/ml. Unlabeled peptide ligands and/or GTPγS (Sigma-Aldrich Inc. St. Louis, Mo.) were added to the reactions as indicated. At the end of the reaction, bound and free radioligand were separated by vacuum filtration using a 96-well vacuum filter plate and vacuum filter apparatus (Multi-Screen system with Durapore HV, […] filters; Millipore Corp., Milford, Mass.); the air-dried filters were then detached from the plate and counted for gamma radioactivity using a gamma counter.
(§2) To assess the capacities of various unlabeled peptide ligands to bind to the G protein-uncoupled and G protein-coupled PTHR conformations (R⁰ and RG, respectively), membranes were prepared from transiently transfected COS-7 cells and the following assay conditions.

[4] = biological target: T2, human parathyroid hormone receptor …; experiment: competition radioligand binding, hPTHR R0 conformation
Description: as §1, §2

[5] = biological target: T2, human parathyroid hormone receptor …; experiment: competition radioligand binding, hPTHR RG conformation
Description: as §1, §2

[6] = biological target: T2, human parathyroid hormone receptor …; experiment: competition radioligand binding, human PIR R0
Description: as §1, §2

[7] = biological target: T2, human parathyroid hormone receptor …; experiment: ratio of R0 IC50 to RG IC50, hPTHR
[8] = biological target: T1, rat parathyroid hormone receptor (PTHR); experiment: competition radioligand binding, rat PIR RG
[9] = biological target: T1, rat parathyroid hormone receptor (PTHR); experiment: competition radioligand binding, rat PIR R0
[10] = biological target: T2, human parathyroid hormone receptor …; experiment: competition radioligand binding, human PTH1 receptor RG
Description: as §1, §2

[11] = biological target: T2, human parathyroid hormone receptor …; experiment: ratio of R0 IC50 to RG IC50, human PTH1 receptor
[12] = biological target: T2, human parathyroid hormone receptor …; experiment: competition radioligand binding, human PTH1 receptor R0
Description: as §1, §2

B1: [Aib^1,3,Gln^10,Har^11,Ala^12,Trp^14]rPTH(1-14)NH2 (peptide)
peptide: [Aib]V[Aib]EIQLMHQ[hArg]AKW-NH2
modifications: N-terminus assumed
SMILES: CC[C@H](C)[C@H](NC(=O)[C@H](CCC(=O)O)NC(=O)C(C)(C)NC(=O)[C@@H](NC(=O)C(C)(C)N)C(C)C)C(=O)N[C@@H](CCC(N)=O)C(=O)N[C@@H](CC(C)C)C(=O)N[C@@H](CCSC)C(=O)N[C@@H](Cc1c[nH]cn1)C(=O)N[C@@H](CCC(N)=O)C(=O)N[C@@H](CCCCNC(=N)N)C(=O)N[C@@H](C)C(=O)N[C@@H](CCCCN)C(=O)N[C@@H](Cc1c[nH]c2ccccc12)C(N)=O
B1 was tested, and the “t1/2 of the FRET response” value (PTHR-CFPIC3/YFPCT) was 0.5 s.

With AVSEIQLLHDKGKSIQDLRRRFFLHHLIAEIHTAEY-NH2 [[Ile^5,Tyr^36]hPTHrP(1-36)NH2] the “t1/2 of the FRET response” value (PTHR-CFPIC3/YFPCT) was 0.5 to 0.7 s.

AVSEIQLLHDKGKSIQDLRRRFFLHHLIAEIHTAEY-NH2 (also: 125I label, site not given here, Radioligand) [^125I-[Ile^5,Tyr^36]PTHrP(1-36)NH2]: binds [1].

B2: A18,22,L25,K26-PTHrP(1-28)NH (peptide)
peptide: AVSEHQLLHDKGKSIQDARRRAFLLKLI-NH2
modifications: not fully specified
notes: also called [Ala^18,22,Leu^25,Lys^26]-PTHrP(1-28); AALK-PTHrP(1-28)
B2 was tested, and the “cAMP in HKRK-B7 cells, EC50” value [2] was 0.52 nM, the “cAMP in HKRK-B7 cells, Max” value [2] was 56.4 pm/well and the IC50 [3] was 0.04 nM. The IC50 [4] was 310 nM, the IC50 [5] was 0.04 nM and the IC50 [6] was 310 nM. For the same binder, the R0/RG selectivity [7] was 6970, the IC50 [8] was 0.16 nM and the IC50 [9] was 34.9 nM.

B3: ^125I-[Nle^8,21,Tyr^34]rPTH(1-34)NH2 (peptide)
peptide: AVSEIQLXHNLGKHLASVERXQWLRKKLQDVHNY
modifications: 125I label (oxidative chloramine-T procedure); Nle at 8 and 21; C-terminal amide
notes: Radioligand; tracer of the R0 assay
B3: binds [1].

Work on AVSEHQLLHDKGKSIQDERRRAFLLKLIAE-NH2 (also called EALK-PTHrP(1-30)) [E18,A22,L25,K26-PTHrP(1-30)NH] yielded an IC50 [3] of 0.08 nM, an IC50 [10] of 0.08 nM and an R0/RG ratio [11] of 11800. It also gave an IC50 [4] of 945 nM, an IC50 [5] of 0.08 nM and an IC50 [6] of 945 nM. It also gave an R0/RG selectivity [7] of 11200, an IC50 [8] of 0.21 nM and an IC50 [9] of 76.3 nM. It also gave an IC50 [12] of 945 nM.

SVSEIQLMHNLGKHLNSMERVEWLRKKLQDVHNF [hPTH(1-34)] was tested, and the “t1/2 of the reduction in FRET signal” value (PTHR-CFPIC3/YFPCT) was 0.7 s.

[Aib]V[Aib]EIQL[Nle]HQ[hArg]AKWY-NH2 (also: 125I label, site not given here, Radioligand; tracer of the RG assay) [^125I-[Aib^1,3,M]PTH(1-15)NH2]: binds [1].

Binder AVSEHQLLHDKGKSIQDERRRAFLHHKIAEI-NH2 (Name as printed (K27)) [E18,A22,K27-PTHrP(1-31)NH] has an IC50 [8] of 0.23 nM and an IC50 [9] of 54.8 nM.
